{
  "source": "paper PMC11452399",
  "about": "(Nature Communications, 2024)",
  "target": "human ferritin heavy chain (FTH1) (human, UniProt P02794)",
  "sequence (P02794 whole entry)": "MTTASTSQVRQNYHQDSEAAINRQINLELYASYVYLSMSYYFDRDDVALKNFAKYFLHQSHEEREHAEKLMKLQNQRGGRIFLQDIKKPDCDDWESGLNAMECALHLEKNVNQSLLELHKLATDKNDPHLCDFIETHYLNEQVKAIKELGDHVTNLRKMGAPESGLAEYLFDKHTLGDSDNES",
  "experiment": "ELISA",
  "data": [
    {"binder": "DSFQVIKNSPLSEWLI", "note": "[GST-Peptide WT (NCOA4 484-499)]", "values": [
      {"measurement": "EC50", "value": 288, "unit": "nM"}
    ]}
  ]
}
